{"source": "paper PMC3662786", "about": "“miR172b Controls the Transition to Autotrophic Development Inhibited by ABA in Arabidopsis”", "binders": {"B1": {"name": "ABI5 probe (dsDNA)", "DNA 1": "TTAACAACTGCATCATATACACAACAATAAC", "DNA 2": "GTTATTGTTGTGTATATGATGCAGTTGTTAA"}, "B2": {"name": "wRAV1-A probe (dsDNA)", "DNA 1": "CACCTGCAACACAACACAACACAACACAACACAACACACCTG", "DNA 2": "CAGGTGTGTTGTGTTGTGTTGTGTTGTGTTGTGTTGCAGGTG"}, "B3": {"name": "mRAV1-A probe (dsDNA)", "DNA 1": "CACCTGCGGTACGGTACGGTACGGTACGGTACGGTACACCTG", "DNA 2": "CAGGTGTACCGTACCGTACCGTACCGTACCGTACCGCAGGTG"}}, "settings_in_all_cases": "protein: recombinant; tags: MBP fusion; label: 3' biotin; blunt", "key": {"MBP-SNZ [1]": {"target": "T1, MBP-SNZ (Arabidopsis thaliana, UniProt Q6PV67 1-325)", "T1 sequence (Q6PV67 whole entry)": "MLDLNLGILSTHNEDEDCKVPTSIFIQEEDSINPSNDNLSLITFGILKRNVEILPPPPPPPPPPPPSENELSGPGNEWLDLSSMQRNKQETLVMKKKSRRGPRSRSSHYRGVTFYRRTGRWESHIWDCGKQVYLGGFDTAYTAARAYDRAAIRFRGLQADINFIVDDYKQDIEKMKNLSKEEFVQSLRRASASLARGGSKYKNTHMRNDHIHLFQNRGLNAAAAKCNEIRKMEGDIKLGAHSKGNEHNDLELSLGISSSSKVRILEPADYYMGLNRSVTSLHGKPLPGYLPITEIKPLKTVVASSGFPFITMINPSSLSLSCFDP", "assay": "EMSA; poly(dI-dC), 5 mM MgCl2; unlabeled probe (50x, 250x) inhibited binding; LightShift EMSA binding buffer, 50 ng poly(dI-dC), 2.5% glycerol, 0.06% NP-40, 5 mM MgCl2, 19 mg BSA (so in the source), 28 ug protein, 5 pmol probe, 30 min room temperature; pH and salt not given"}, "MBP-SNZ [2]": {"target": "T1, MBP-SNZ", "assay": "EMSA; poly(dI-dC), 5 mM MgCl2; unlabeled RAV1-A probe reduced binding; LightShift EMSA binding buffer, 50 ng poly(dI-dC), 2.5% glycerol, 0.06% NP-40, 5 mM MgCl2, 19 mg BSA (so in the source), 28 ug protein, 5 pmol probe, 30 min room temperature; pH and salt not given"}, "MBP-SNZ [3]": {"target": "T1, MBP-SNZ", "assay": "EMSA; poly(dI-dC), 5 mM MgCl2; LightShift EMSA binding buffer, 50 ng poly(dI-dC), 2.5% glycerol, 0.06% NP-40, 5 mM MgCl2, 19 mg BSA (so in the source), 28 ug protein, 5 pmol probe, 30 min room temperature; pH and salt not given"}}}
{"binder": "B1", "values": [{"measurement": "binding result", "setting": "MBP-SNZ [1]", "result": "binds"}]}
{"binder": "B2", "values": [{"measurement": "binding result", "setting": "MBP-SNZ [2]", "result": "binds"}]}
{"binder": "B3", "values": [{"measurement": "binding result", "setting": "MBP-SNZ [3]", "result": "no binding"}]}
